Entries after “also recorded” stand apart in the source; their conditions may differ.
T1: control GEF (GEF720) (Homo sapiens, UniProt O94827)
T1 construct: expressed in transfected cells; host or cells: yeast strain TAT7
T1 sequence (O94827 1-1006): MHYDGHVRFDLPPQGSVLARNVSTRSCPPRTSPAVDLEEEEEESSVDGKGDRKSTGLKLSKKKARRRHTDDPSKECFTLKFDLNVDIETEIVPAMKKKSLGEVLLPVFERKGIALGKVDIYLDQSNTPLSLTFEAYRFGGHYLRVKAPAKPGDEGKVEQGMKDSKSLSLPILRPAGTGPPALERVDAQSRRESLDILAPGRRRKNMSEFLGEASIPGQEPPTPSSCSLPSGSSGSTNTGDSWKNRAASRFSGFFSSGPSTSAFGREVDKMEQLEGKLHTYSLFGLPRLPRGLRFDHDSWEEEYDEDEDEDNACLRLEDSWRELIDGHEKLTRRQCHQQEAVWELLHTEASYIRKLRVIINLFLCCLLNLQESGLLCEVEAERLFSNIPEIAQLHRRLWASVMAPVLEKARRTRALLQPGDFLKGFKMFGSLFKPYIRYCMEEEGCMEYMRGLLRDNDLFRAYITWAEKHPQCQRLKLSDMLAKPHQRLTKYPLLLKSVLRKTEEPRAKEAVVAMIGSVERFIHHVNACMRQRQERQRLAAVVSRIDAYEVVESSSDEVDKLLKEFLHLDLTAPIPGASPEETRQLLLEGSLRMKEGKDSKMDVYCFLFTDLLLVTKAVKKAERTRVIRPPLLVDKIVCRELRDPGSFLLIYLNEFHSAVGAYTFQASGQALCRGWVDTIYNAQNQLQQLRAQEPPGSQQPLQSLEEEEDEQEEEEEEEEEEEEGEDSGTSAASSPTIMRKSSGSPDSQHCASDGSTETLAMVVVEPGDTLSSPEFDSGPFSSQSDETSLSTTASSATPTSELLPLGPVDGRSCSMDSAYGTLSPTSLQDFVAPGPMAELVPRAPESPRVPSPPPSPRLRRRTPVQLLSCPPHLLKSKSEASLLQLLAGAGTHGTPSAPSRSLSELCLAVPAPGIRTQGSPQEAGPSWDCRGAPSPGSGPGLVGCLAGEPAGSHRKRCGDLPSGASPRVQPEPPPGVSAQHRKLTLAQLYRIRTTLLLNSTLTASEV


Experiments:
control GEF (GEF720) = molecular target: T1, control GEF (GEF720); test: Yeast Exchange Assay (YEA), RhoA activation; format: cell-based; conditions: yeast strain TAT7, reporter gene
From the text: The wild type GTPase is fused to the LexA DNA binding domain (Matchmaker GAL4 two-hybrid, Clontech Laboratories, Inc., USA) and the effector to the […] (Matchmaker GAL4 two-hybrid, Clontech, Inc., USA). Under these conditions, no binding occurs in the TAT7 strain (De Toledo et al., 2000). Upon addition of a third plasmid expressing the GEF, the GTPase gets activated and binds to its effector, thus leading to the transactivation of the reporter gene LacZ.
TrioGEFD2, a control GEF (GEF720) or an empty vector (−GEF: corresponds to a vector without GEF) were introduced into the YEA system and analysed for their ability to transactivate the reporter gene in absence (left panel) or in the presence (right panel) of TRIPα.
In order to better characterise the effect of TRIAPα on the Trio full length RhoGEF activity, the yeast exchange assay (YEA) was used, which is a quick and quantitative test derived from the classical two-hybrid system allowing to measure Rho-GEF activity and specificity (De Toledo et al., 2000). This functional assay is based on the fact that the GTPase binds to its effector only if it is activated by a RhoGEF. Briefly, yeasts are transformed with the GTPase fused to the LexA binding domain (LexA), and its effector to the GAL-4 Activating Domain (GAD), and with the adequate Rho-GEF partner in the yeast strain TAT7 (FIG. 7). […]

TrioDH2 (a.a. 1848-2096) = molecular target: T2, TrioDH2 (a.a. 1848-2096) (Homo sapiens, UniProt O75962); test: Binding specificity of aptamers in yeast; conditions: growth on selective medium
T2 construct: TrioDH2 (a.a. 1848-2096); expressed in transfected cells; host or cells: yeast
From the text: (§1) Trx represents the thioredoxin protein with no inserted peptide.
In order to identify specific inhibitors of TrioGEFD2, a recently developed strategy was used, this strategy being derived from the yeast two hybrid system, where the cDNA library of preys has been replaced by a combinatorial library of short peptides (20 amino acids) in fusion with the bacterial protein thioredoxin A (Colas et al., 1996). This strategy has been successfully used to isolate specific inhibitors of the cyclin-dependent kinases (Cdks), the cell cycle transcription factor E2F, or the viral HPV16 E6 oncoprotein and HBEV core protein (Colas et al., 1996; Butz et al., 2001; Fabrizzio et al., 1999; Geyer et al., 2000). The TrioGEFD2 bait was constructed as follows: plasmid pMTHATrio1848-2298 (Bellanger et al., 1998) was digested with EcoRI/XhoI and the insert cloned in pEG202EcoRI/XhoI to generate the bait pEG202TroGEFD2. Yeast strain EGY048 (Colas et al., 1996) was transformed with pEG202TrioGEFD2 and subsequently with the library of Thioredoxin constrained aptamers according to standard procedures (Ito et al., 1983). After transformation, cells were allowed to recover for 4 hours in galactose containing medium before plating on selective galactose medium. Of the 2×10^6 screened colonies, those growing in the selective medium were recovered and retested for interaction. […]

TrioGEFD1 (DH1PH1) = molecular target: T3, TrioGEFD1 (DH1PH1) (Homo sapiens, UniProt O75962); test: Binding specificity of aptamers in yeast; parameters: key to Binding in yeast: +++^1 and +^1 represent respectively a full and a partial (see FIG. 1) binding capacity; +++^1 and +^1 represent respectively a full and a partial (see FIG. 1) binding capacity; −−^1 represents a lack of binding
T3 construct: TrioGEFD1 (a.a. 1232-1629); expressed in transfected cells; host or cells: yeast
From the text: as §1
In order to identify specific inhibitors of TrioGEFD2, a recently developed strategy was used, this strategy being derived from the yeast two hybrid system, where the cDNA library of preys has been replaced by a combinatorial library of short peptides (20 amino acids) in fusion with the bacterial protein thioredoxin A (Colas et al., 1996). This strategy has been successfully used to isolate specific inhibitors of the cyclin-dependent kinases (Cdks), the cell cycle transcription factor E2F, or the viral HPV16 E6 oncoprotein and HBEV core protein (Colas et al., 1996; Butz et al., 2001; Fabrizzio et al., 1999; Geyer et al., 2000). The TrioGEFD2 bait was constructed as follows: plasmid pMTHATrio1848-2298 (Bellanger et al., 1998) was digested with EcoRI/XhoI and the insert cloned in pEG202EcoRI/XhoI to generate the bait pEG202TroGEFD2. Yeast strain EGY048 (Colas et al., 1996) was transformed with pEG202TrioGEFD2 and subsequently with the library of Thioredoxin constrained aptamers according to standard procedures (Ito et al., 1983). After transformation, cells were allowed to recover for 4 hours in galactose containing medium before plating on selective galactose medium. Of the 2×10^6 screened colonies, those growing in the selective medium were recovered and retested for interaction. […] Binding specificity was investigated by screening for interaction with the following baits: TrioDH2 (a.a. 1848-2096), TrioPH2 (a.a. 2107-2223), TrioGEFD1 (a.a. 1232-1629), Dbl (a.a. 498-826), Vav (ala. 172-598) (Zhang et al, 1994), GEFD2 domain of Kalirin (a.a. 1640-1980)(Penzes et al., 2001), p115RhoGEF (a.a. 391-870)(Wells et al, 2002) and PDZRhoGEF (a.a. 964-1362) (Fukuhara et al., 1999). None of these aptamers interacted with other RhoGEF members such as Dbl, Vav, and the RhoA-specific GEFs p115RhoGEF and PDZRhoGEF.

Effect on control GEF (GEF720) in the YEA system (control GEF (GEF720))	Binding in yeast (TrioGEFD1 (DH1PH1); RhoGEF TrioDH1PH1)	Molecule	Binding to the DH2 catalytic domain in yeast (TrioDH2 (a.a. 1848-2096))	Binding to TrioGEFD1 (DH1PH1) in yeast (TrioGEFD1 (DH1PH1); growth on selective medium)
the control GEF is unaffected	–	AREGADGAICGYNLATLVMLGPSERVFCPLCEPCSSDIYELM [TRIPα, 42-amino acid peptide corresponding to the variable region of TRIAPα]	–	–
–	+^1	TRIAPα: aptamer of 154 amino acids: variable region of 42 amino acids inserted into the thioredoxin protein; tested as GST fusion (protein) MSDKIIHLTDDSFDTDVLKADGAILVDFWAEWCGPAREGADGAICGYNLATLVMLGPSERVFCPLCEPCSSDIYELMGPCKMIAPILDEIADEYQGKLTVAKLNIDQNPGTAPKYGIRGIPTLLLFKNGEVASATKVGALSKGQLKEFLDANLA	also binds to the DH2 catalytic domain; also recorded: interacted with the DH2 catalytic domain alone	weakly interacts; also recorded: interacted weakly; also recorded: bound TrioGEFD1 in yeast

From US8088892B2, “Inhibitors of proteins from the Rho-GEF family” (Centre National de la Recherche Scientifique (C.N.R.S.), priority 2002, dated 2012)
